Laboratory results: publication PMC2879156

What was measured:
[1] = target: SarA C9A (Staphylococcus aureus, UniProt Q7A1N5 1-124, C9A); assay: EMSA
[2] = target: T1, SarA (Staphylococcus aureus, UniProt Q7A1N5 1-124); assay: EMSA
T1 sequence: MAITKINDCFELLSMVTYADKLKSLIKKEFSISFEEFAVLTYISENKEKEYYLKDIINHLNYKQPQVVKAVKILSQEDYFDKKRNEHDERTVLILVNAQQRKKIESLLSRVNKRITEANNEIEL

B1: agr B1/B2 (dsDNA)
DNA 1: ATGTTAAAATATTAAATACAAATTACATTTAACAGTTAAGTATTTATTTCCTACAGTTA
DNA 2: TAACTGTAGGAAATAAATACTTAACTGTTAAATGTAATTTGTATTTAATATTTTAACAT
binding result [1]: binds
binding result [2]: binds
